From patent US20220064291A1, “METHODS OF USING BUTYROPHILIN ANTIBODIES FOR TREATING HIV INFECTION” (Merck Sharp & Dohme Corp., priority 2018, published 2022)
Changes are numbered by the printed parent chain.

B1: 1G (antibody, V domains shown)
VH: QVQLVQSGAEVKKPGASVKVSCKASGYTFTSYGISWVRQAPGQGLEWMGWISAYNGNTNYAQKLQGRVTMTTDTSTSTAYMELRSLRSDDTAVYYCARLGATVAYFDLWGRGTLVTVSS
VL: EIVLTQSPATLSVSPGERATLSCRASQSVSSNLAWYQQKPGQAPRLLIYGASTRATGIPARFSGSGSGTEFTLTISSLQSEDFAVYYCQQDVYWPFTFGGGTKVEIK
B2: 2A (antibody, V domains shown)
VH: QVQLVQSGAEVKKPGASVKVSCKASGYTFTSYYIHWVRQAPGQGLEWMGIINPSGGSTSYAQKFQGRVTMTRDTSTSTVYMELSSLRSEDTAVYYCARATWEALHYWGQGTLVTVSS
VL: B1 VL with L4M, S30G, D91Y, V92Y, Y93A, F96R
B3: 3A (antibody, V domains shown)
VH: QVQLVQSGAEVKKPGASVKVSCKASGYTFTSYYMHWVRQAPGQGLEWMGIINPGGGSTSYAQKFQGRVTMTRDTSTSTVYMELSSLRSEDTAVYYCARDAGHDYGDMAYWGQGTLVTVSS
VL: DIQMTQSPSTLSASVGDRVTITCRASQSISSWLAWYQQKPGKAPKLLIYKASSLESGVPSRFSGSGSGTEFTLTISSLQPDDFATYYCQQYRSFPTFGGGTKVEIK
B4: 3B (antibody, V domains shown)
VH: QVQLVQSGAEVKKPGASVKVSCKASGYTFTSYYMHWVRQAPGQGLEWMGIINPSGGSTSYAQKFQGRVTMTRDTSTSTVYMELSSLRSEDTAVYYCARPSGDYSGYDALDVWGQGTMVTVSS
VL: B1 VL with V13L, N32Y, G50D, T53N, E70D, Q79E, S80P, V92P, F96I

Biological target: T1, BTN3A3 (Homo sapiens, UniProt O00478)
T1 construct: Fc (Fc-chimera); purchased R&D systems; host or cells: HEK293
T1 sequence (O00478 with tags, fused parts or gaps limits assumed): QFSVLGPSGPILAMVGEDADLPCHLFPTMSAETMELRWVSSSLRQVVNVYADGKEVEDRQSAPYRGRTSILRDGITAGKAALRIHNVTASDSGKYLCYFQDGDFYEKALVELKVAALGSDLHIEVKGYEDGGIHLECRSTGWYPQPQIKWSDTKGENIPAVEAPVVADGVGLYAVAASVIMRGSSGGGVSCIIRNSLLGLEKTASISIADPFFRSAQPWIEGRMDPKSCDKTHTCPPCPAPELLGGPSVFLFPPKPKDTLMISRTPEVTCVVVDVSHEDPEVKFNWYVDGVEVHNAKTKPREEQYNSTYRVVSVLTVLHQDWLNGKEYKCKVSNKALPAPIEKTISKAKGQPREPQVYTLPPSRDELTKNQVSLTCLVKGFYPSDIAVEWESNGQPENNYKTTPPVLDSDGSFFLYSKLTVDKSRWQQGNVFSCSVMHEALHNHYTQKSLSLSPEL
Experiment: BTN isoform binding of yeast display antibodies (Octet isoform binding profile, binding affinity)
Conditions: Table 4; Yes/No; hIgG1-297A isotype
Procedure: (§1) De novo antibody discovery for butyrophilin isoforms was executed on pre-immune yeast display libraries. The soluble proteins used in the yeast display selections were biotinylated recombinant proteins of HEK293-expressed Fc-chimeras BTN2A2, BTN3A1, BTN3A2, and BTN3A3 from R&D systems. All proteins were analyzed before use by Biacore binding against control antibody anti-BTN Monoclonal Antibody (eBioBT3.1 (20.1, BT3.1), SEC, SDS-PAGE, and endotoxin.
(§2) Each biotinylated BTN isoform was subjected to pre-immune yeast display libraries for selections. The selections started with MACS (Magnetic Bead-based Cell Separation) cell separations for the first two rounds to enrich clones that bind to the targeted BTN isoforms, and applied fluorescence activated cell sorting (FACS) at later rounds to isolate clones that were with high affinity and isoform specificity. Due to the high sequence homology among all BTN isoforms, isoform-specific selection pressures were achieved by introducing ten-fold molar ratio of the non-biotinylated BTN isoforms to the biotinylated and selection-targeted BTN isoforms in the later rounds of the selections.
(§3) The isolated clones were then sequenced to identify the unique antibodies and screened for isoform binding profiles by Octet. To ensure the isolated antibodies have broad-epitopic coverage, all the antibodies were subjected to binning against the benchmark antibodies: BTN20.1 (Biolegend, agonist) and BTN103.2 (Creative Biolabs, antagonist). Purified antibodies were submitted for functional assay screening, as described below.
(§4) Given the sequence homology between BTN3A isoforms (>90%), this outcome is expected. Within all 105 antibodies from the BTN3A1 campaign and 125 antibodies from the BTN3A2 campaign, each antibody was characterized into one of the bins: Biolegend-bin, Creative-Biolabs-bin, Empty Set, or Overlapping.
(§5) Using the protocols described in detail in Example 2B and Example 3A, anti-BTN3A antibodies were screened for a functional role in T cell activation and reactivation of latent HIV. Antibody screens were conducted using HIV latent CD4+ T cells (prepared as described in Example 1A). T cell activation was quantified by production of IFNγ, and reactivation of latent HIV was quantified by luciferase assay. […] Detailed information on binding profile with binding affinity (KD) (Table 4) and antibody isotype and sequence (Table 5) are provided for two representative antibodies from each of the three functional categories observed.

Row | Molecule | BTN3A3 Binding
1 | B1 | Yes
2 | B2 | Yes
3 | B3 | Yes
4 | B4 | Yes

Biological target: T2, BTN3A1 (Homo sapiens, UniProt O00481)
T2 construct: Fc (Fc-chimera); purchased R&D systems; host or cells: HEK293
T2 sequence (O00481 with tags, fused parts or gaps limits assumed): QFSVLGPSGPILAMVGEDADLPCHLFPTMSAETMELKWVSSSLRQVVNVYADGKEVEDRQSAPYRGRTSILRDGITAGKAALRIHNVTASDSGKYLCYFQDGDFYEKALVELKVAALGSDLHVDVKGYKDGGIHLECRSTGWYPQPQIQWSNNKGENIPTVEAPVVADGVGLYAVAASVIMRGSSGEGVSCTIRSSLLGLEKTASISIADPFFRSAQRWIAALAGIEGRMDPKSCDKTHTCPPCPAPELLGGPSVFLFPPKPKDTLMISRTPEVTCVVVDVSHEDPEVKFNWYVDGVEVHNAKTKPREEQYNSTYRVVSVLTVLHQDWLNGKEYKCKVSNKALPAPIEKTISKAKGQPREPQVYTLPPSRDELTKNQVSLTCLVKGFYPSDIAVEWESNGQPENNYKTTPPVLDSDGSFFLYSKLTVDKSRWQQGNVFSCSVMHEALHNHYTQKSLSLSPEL
Experiment: as above
Conditions: Table 4; Yes/No; hIgG1-297A isotype
Procedure: as §1, §2, §3, §4, §5

Row | Molecule | BTN3A1 Binding
5 | B1 | Yes
6 | B2 | Yes
7 | B3 | Yes
8 | B4 | Yes

Biological target: T3, BTN3A2 (Homo sapiens, UniProt P78410)
T3 construct: Fc (Fc-chimera); purchased R&D systems; host or cells: HEK293
T3 sequence (P78410 with tags, fused parts or gaps limits assumed): as the sequence (O00478 with tags, fused parts or gaps limits assumed) above, with R37K, D120N, I123V, K149Q, D152N, T153A, A174E, S184G, G187E counted along it
Experiment: as above
Conditions: Table 4; Yes/No; hIgG1-297A isotype
Procedure: as §1, §2, §3, §4, §5

Row | Molecule | BTN3A2 Binding
9 | B1 | Yes
10 | B2 | No
11 | B3 | No
12 | B4 | Yes

Test system: latent HIV in HIV latent primary CD4+ T cells
Experiment: Latent virus reactivation by plate-coated anti-BTN3A antibody plus anti-CD3, Nano-Glo Luciferase Assay
Type: cell-based, HIV-1
Conditions: with anti-CD3, Yes/No
Procedure: (§6) Latent HIV-1 infected primary CD4+ T cells were generated following a protocol licensed from the laboratory of Jonathan Karn (Case Western Reserve University, Cleveland, Ohio). Briefly, naive CD4^+ T cells isolated from 2 healthy human donors were propagated for 6 days in growth medium supplemented with Dynabeads Human T-Activator CD3/CD28 (25 μl/10^6 cells) and Th17 polarizing cytokines: TGF-β1 (5 ng/ml), IL-4 (10 ng/ml), IFNγ (10 ng/ml), IL-1β (10 ng/ml), IL-6 (30 ng/ml), IL-23 (50 ng/ml), IL-8 (15 ng/ml), IL-10 (10 ng/ml). […]. Reactivation of HIV-1 proviruses from latently infected cells was performed by treatment with Dynabeads Human T-Activator CD3/CD28 (25 μl/10^6 cells) or PMA/Ionomycin.
To assess if BTN3A modulation has impact on HIV latency reversal, sterile 96-well flat bottom tissue culture plates (Corning) were coated with various concentrations of anti-CD3 and anti-BTN3 20.1 antibodies (10 μg/ml, 3 μg/ml, 1 μg/ml, and 0.3 μg/ml) in PBS for 16h in a 4° C. refrigerator. As controls, plates were coated with various concentrations of anti-CD3 antibody and isotype control antibody (10 μg/ml, 3 μg/ml, 1 μg/ml, and 0.3 μg/ml), anti-CD3 antibody alone, or isotype control antibody alone. The next day, antibodies were aspirated using a multichannel pipette and HIV latent primary CD4+ T cells from two donors were added to the antibody coated plates in duplicates at 125,000 cells/well in 200 ul of primary cell media (RPMI with 10% FBS, 50 μg/ml Primocin™). At 24 h post treatment latent virus reactivation was measured using a Nano-Glo® Luciferase Assay (Promega) (FIG. 5).
as §5

Row | Molecule | Antibody function HIV reactivation
13 | B1 | No
14 | B2 | Yes
15 | B3 | Yes
16 | B4 | Yes

Test system: HIV latent primary CD4+ T cells
Experiment: T cell activation by plate-coated anti-BTN3A antibody plus anti-CD3, IFNγ expression (V-PLEX)
Type: cell-based, human
Conditions: production of IFNγ, with anti-CD3, Yes/No
Procedure: as §6
We next addressed if treatment with anti-BTN3A antibodies reverses BTN3A-mediated blockade in T cell activation. To assess this, sterile 96-well flat bottom tissue culture plates (Corning) were coated with various concentrations of anti-CD3 and anti-BTN3 20.1 antibodies (10 μg/ml, 3 μg/ml, 1 μg/ml, and 0.3 μg/ml) in PBS for 16 h in a 4° C. refrigerator. As controls, plates were coated with various concentrations of anti-CD3 antibody and isotype control antibody (10 μg/ml, 3 μg/ml, 1 μg/ml, and 0.3 μg/ml), anti-CD3 antibody alone, or isotype control antibody alone. The next day, antibodies were aspirated using a multichannel pipette and HIV latent primary CD4+ T cells from two donors were added to the antibody coated plates in duplicates at 125,000 cells/well in 200 ul of primary cell media (RPMI with 10% FBS, 50 μg/ml Primocin™). At 72 h following treatment T cell activation was measured based on IFNγ expression using a V-PLEX proinflammatory panel 1 human assay (Meso Scale Discovery, Rockville, Md.) (FIG. 4).
as §5

Row | Molecule | Antibody function T cell activation
17 | B1 | Yes
18 | B2 | No
19 | B3 | Yes
20 | B4 | Yes
